From publication doi:10.1101/2020.10.18.344481 come the findings set out here.

In assay [1] the target is Thiomicrospira Cas2 (Thiomicrospira). Briefly: cryo-EM structure.
Assay [2] concerns the target Thiomicrospira Cas6-RT-Cas1 fusion protein (Thiomicrospira). Briefly: cryo-EM structure.

For the substance Thiomicrospira Cas2 (natural protein), the stoichiometry N in assay [1] came to 2.
In assay [2], “Thiomicrospira Cas6-RT-Cas1 fusion protein (enzyme)” displayed a stoichiometry N of 2.
